# Measured values reported in patent US20060241067A1, “Methods For inhibiting angiogenesis, cell migration, cell adhesion, and cell survival” (priority 2002, published 2006).
# B1: Csk: enzyme that phosphorylates Src on Tyr 527 and inhibits its activity (protein, UniProt P41240 2-450, looked up)
# Tyrosine-protein kinase CSK: SAIQAAWPSGTECIAKYNFHGTAEQDLPFCKGDVLTIVAVTKDPNWYKAKNKVGREGIIPANYVQKREGVKAGTKLSLMPWFHGKITREQAERLLYPPETGLFLVRESTNYPGDYTLCVSCDGKVEHYRIMYHASKLSIDEEVYFENLMQLVEHYTSDADGLCTRLIKPKVMEGTVAAQDEFYRSGWALNMKELKLLQTIGKGEFGDVMLGDYRGNKVAVKCIKNDATAQAFLAEASVMTQLRHSNLVQLLGVIVEEKGGLYIVTEYMAKGSLVDYLRSRGRSVLGGDCLLKFSLDVCEAMEYLEGNNFVHRDLAARNVLVSEDNVAKVSDFGLTKEASSTQDTGKLPVKWTAPEALREKKFSTKSDVWSFGILLWEIYSFGRVPYPRIPLKDVVPRVEKGYKMDAPDGCPPAVYEVMKNCWHLDAAMRPSFLQLREQLEHIKTHELHL
# System: Human umbilical vein endothelial cells (HUVEC)
# Experiment: Endothelial cell migration assay (transwell) on ECM substrates
# Format: cell-based
# Conditions: inventors' data, no details given
# Experimental: Human umbilical vein endothelial cells (HUVEC) were grown in Endothelial Growth Medium (containing 2% fetal bovine serum, bFGF and VEGF) (Clonetics, San Diego, Calif.). To render HUVECs quiescent for Rac and/or Rho assays, monolayers of endothelial cells were incubated for 18 hrs in Endothelial Basal Medium supplemented with 0.1% serum (Clonetics). Cell migration and adhesion assays on ECM substrates were performed as previously described in Kim et al. (S. Kim et al., Amer. J. Biol. Chem., 275:33920-33928 (2000); and S. Kim et al., Amer. J. Path., 156:1345-1362 (2000)).
# Migration assays were performed essentially as described (Kim, et. al., 2000). […] HUVECS (25,000) were added to the upper chamber of inserts in migration buffer (Hepes buffered M199 medium containing 1% BSA, 2 mM MgCl2, 2 mM CaCl2 and 0.2 mM MnCl2) containing 25 μg/ml of various antibodies. In some experiments, 250 μM dibutyryl cAMP was placed in the upper and lower chambers of the transwell. Cells were allowed to migrate from the upper to the lower chamber for four hours at 37° C. The number of cells which had migrated were counted in three representative high power (200×) fields per insert. The data are presented as number of cells migrating+/−standard error of the mean. […] In this case, migrated transfected cells were identified by fluorescent microscopy and counted.
molecule,measurement,value
B1,cell migration,causes inhibition of cell migration
